Patent US20090202556A1 (Kyowa Kirin, published 2009)

T1: CLDN5-myc/His (fusion protein in which myc/His was added to the C-terminal of human CLDN5), expressed in CHO … (human, UniProt O00501 1-218)
T1 sequence: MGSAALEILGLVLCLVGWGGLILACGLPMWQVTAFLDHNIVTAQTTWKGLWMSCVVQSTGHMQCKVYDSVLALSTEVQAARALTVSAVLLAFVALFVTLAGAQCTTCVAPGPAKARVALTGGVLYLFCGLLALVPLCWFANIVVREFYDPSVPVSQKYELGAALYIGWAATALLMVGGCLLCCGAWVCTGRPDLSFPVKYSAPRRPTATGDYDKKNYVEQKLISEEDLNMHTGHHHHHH

T2: 6-EL1/4-EL2 (CLDN4-CLDN6 fusion protein: EL1 of CLDN6, EL2 of CLDN4, myc/His at the C-terminal side), … (human)
T2 chain: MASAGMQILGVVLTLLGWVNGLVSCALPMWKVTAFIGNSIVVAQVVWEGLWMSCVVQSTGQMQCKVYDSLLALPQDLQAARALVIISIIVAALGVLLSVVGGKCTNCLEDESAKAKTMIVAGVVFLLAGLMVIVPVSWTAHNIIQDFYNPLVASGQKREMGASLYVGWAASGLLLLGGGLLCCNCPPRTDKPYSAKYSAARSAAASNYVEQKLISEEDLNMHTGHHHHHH

T3: CLDN3-myc/His (fusion protein in which myc/His was added to the C-terminal of human CLDN3), expressed in CHO … (human, UniProt O15551 1-220)
T3 construct: also called CLDN3-myc/His gene-introduced CHO cell; not shown: C-terminal myc/His tag
T3 sequence: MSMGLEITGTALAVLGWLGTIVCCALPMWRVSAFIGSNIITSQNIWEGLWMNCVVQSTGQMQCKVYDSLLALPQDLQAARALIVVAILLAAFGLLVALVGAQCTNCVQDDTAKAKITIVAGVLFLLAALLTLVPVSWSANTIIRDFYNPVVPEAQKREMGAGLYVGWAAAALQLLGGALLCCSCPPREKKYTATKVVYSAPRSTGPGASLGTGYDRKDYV

T4: CLDN6-myc/His (fusion protein in which myc/His was added to the C-terminal of human CLDN6), expressed in CHO … (human, UniProt P56747 1-220)
T4 chain: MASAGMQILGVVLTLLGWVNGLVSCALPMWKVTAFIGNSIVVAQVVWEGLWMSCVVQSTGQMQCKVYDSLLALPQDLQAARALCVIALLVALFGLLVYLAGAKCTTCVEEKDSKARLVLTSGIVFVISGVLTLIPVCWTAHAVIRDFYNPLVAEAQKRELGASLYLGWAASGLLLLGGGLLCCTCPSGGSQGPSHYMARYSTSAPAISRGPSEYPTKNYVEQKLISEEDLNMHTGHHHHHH

T5: CLDN4-myc/His (fusion protein in which myc/His was added to the C-terminal of human CLDN4), expressed in CHO … (human, UniProt O14493 1-209)
T5 construct: On live cells in FCM; as cell extract in Western blotting (denatured) and immunoprecipitation (Triton X-100 lysate); also called CLDN4-myc/His gene-introduced CHO cell
T5 sequence: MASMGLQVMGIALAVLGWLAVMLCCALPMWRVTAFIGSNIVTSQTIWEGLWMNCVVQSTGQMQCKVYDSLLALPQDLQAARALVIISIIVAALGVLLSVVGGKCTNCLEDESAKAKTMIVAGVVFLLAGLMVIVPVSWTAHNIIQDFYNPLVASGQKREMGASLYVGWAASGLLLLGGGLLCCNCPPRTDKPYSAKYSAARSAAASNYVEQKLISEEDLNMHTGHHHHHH

T6: 4-EL1/6-EL2 (CLDN4-CLDN6 fusion protein: EL1 of CLDN4, EL2 of CLDN6, myc/His at the C-terminal side), … (human)
T6 chain: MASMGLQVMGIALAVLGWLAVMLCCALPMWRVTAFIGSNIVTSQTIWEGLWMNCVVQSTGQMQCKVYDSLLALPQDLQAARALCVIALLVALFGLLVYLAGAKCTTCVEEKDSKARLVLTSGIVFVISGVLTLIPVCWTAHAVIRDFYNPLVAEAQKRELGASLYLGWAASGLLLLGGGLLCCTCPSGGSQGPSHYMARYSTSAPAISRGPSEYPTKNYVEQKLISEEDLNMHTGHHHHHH

T7: CLDN9-myc/His (fusion protein in which myc/His was added to the C-terminal of human CLDN9), expressed in CHO … (human, UniProt O95484 1-217)
T7 sequence: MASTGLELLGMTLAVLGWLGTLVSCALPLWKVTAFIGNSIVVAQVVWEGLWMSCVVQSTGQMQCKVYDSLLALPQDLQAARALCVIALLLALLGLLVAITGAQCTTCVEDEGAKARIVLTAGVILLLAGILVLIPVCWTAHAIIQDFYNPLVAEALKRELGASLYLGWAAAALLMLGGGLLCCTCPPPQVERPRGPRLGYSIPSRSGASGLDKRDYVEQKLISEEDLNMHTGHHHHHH


What was measured:
[1] = target: T1, CLDN5-myc/His (fusion protein in which …); assay: FCM on live CLDN5/CHO cells
Method: (§1) Each of CLDN3/CHO, CLDN4/CHO, CLDN5/CHO, CLDN6/CHO and CLDN9/CHO was cultured for 3 to 4 days and peeled off using 0.02% EDTA solution (manufactured by Nacalai Tesque), and the recovered cells were washed with PBS and, in order to avoid nonspecific adsorption of antibodies, blocked at ice temperature for 30 minutes. The cells were dispensed at 1 to 5×10⁵ cells/100 μl BSA-PBS into a 96-well U bottom plate and centrifuged (1,500 rpm, 5 minutes), the supernatant was removed and then a mouse anti-serum to be immunized, a culture supernatant of hybridoma KM3900 (8.6 μg/ml), anti-CLDN4 monoclonal antibodies KM3900 and KM3907 diluted to 5 μg/ml and a mouse IgG2a isotype control (manufactured by DAKO) were dispensed as the primary antibodies at 100 μl/well and allowed to react at ice temperature for 60 minutes. After the reaction and then washing with BSA-PBS once, FITC-labeled anti-mouse immunoglobulin G (H+L) (manufactured by DAKO) diluted 50-fold with BSA-PBS was added thereto as the secondary antibody at 100 μl/well and allowed to react at ice temperature for 30 minutes under shading. After washing again once with BSA-PBS and subsequently suspending in PBS, the fluorescent intensity was measured by FCM (manufactured by Beckman Coulter).

[2] = target: T2, 6-EL1/4-EL2 (CLDN4-CLDN6 fusion …); assay: FCM on live 6-EL1/4-EL2/CHO cells
[3] = target: T3, CLDN3-myc/His (fusion protein in which …); assay: FCM on live CLDN3/CHO cells
Method: as §1

[4] = target: T4, CLDN6-myc/His (fusion protein in which …); assay: FCM on live CLDN6/CHO cells
Method: as §1

[5] = target: T5, CLDN4-myc/His (fusion protein in which …); assay: FCM on live CLDN4/CHO cells
Method: as §1

[6] = target: T6, 4-EL1/6-EL2 (CLDN4-CLDN6 fusion …); assay: FCM on live 4-EL1/6-EL2/CHO cells
[7] = target: T7, CLDN9-myc/His (fusion protein in which …); assay: FCM on live CLDN9/CHO cells
Method: as §1

binding result [1] | binding result [2] | binding result [3] | binding result [4] | binding result [5] | binding result [6] | binding result [7] | Binder
no binding (tested: 5 µg/ml) | binds | no binding (tested: 5 µg/ml) | no binding (tested: 5 µg/ml) | binds | no binding | no binding (tested: 5 µg/ml) | anti-CLDN4 monoclonal antibody KM3900 produced by hybridoma KM3900 (FERM BP-10751) (antibody, V domains shown, Used as hybridoma culture supernatant (8.6 µg/ml) or purified antibody (5 µg/ml); also called anti-CLDN4 mouse antibody KM3900) VH: EVQLQQSGPELVKPGASVKISCKASGYTFTDYYMNWVKQSHGKSLEWIGDVVPNNGVPTYNQKFKGKATLTVDKSSSTAYMELRSLTSEDSAVYYCARPHYYYAGRSGAMDYWGQGTSVTVSS VL: QIVLTQSPAIMSASLGERVTMTCTASSTVSSTYLHWYQQKPGSSPKLWIYSTSNLASGVPARFSGSGSGTSYSLTISSMEAEDAATYYCHQYHRSPPTFGGGTKLEIK
no binding (tested: 5 µg/ml) | no binding | binds | no binding (tested: 5 µg/ml) | binds | binds | no binding (tested: 5 µg/ml) | anti-CLDN4 monoclonal antibody KM3907 produced by hybridoma KM3907 (FERM BP-10885) (antibody, mouse IgG2a, V domains shown) VH: QVQLQQSGPELVKPGASVKISCKASGYAISTSWMNWVKQRPGKGLEWIGRINPGDGNTNYNGKFMAKATLTADKPSSTAYMQLSSLTSEDSAVYFCTRGDRWSGAMDYWGQGTSVTVSS VL: GNVLTQSPAIMSASPGEKVTMTCRASSSVSSSYLHWYQQKSGASPKLWIYSTSNLASGVPVRFSGSGSGTSYSLTISSVEAEDAATYYCQQYSGFPLTFGAGTKLELK
